Source: paper PMC11933295, “Inhibiting hedgehog signal by a patched-1 antibody” (Cell Discovery, 2025)

Molecular target: T1, engineered human PTCH1 protein (PTCH1*, a functional PTCH1 variant with two cytosolic loops truncated) (Homo sapiens, stabilised)
T1 chain: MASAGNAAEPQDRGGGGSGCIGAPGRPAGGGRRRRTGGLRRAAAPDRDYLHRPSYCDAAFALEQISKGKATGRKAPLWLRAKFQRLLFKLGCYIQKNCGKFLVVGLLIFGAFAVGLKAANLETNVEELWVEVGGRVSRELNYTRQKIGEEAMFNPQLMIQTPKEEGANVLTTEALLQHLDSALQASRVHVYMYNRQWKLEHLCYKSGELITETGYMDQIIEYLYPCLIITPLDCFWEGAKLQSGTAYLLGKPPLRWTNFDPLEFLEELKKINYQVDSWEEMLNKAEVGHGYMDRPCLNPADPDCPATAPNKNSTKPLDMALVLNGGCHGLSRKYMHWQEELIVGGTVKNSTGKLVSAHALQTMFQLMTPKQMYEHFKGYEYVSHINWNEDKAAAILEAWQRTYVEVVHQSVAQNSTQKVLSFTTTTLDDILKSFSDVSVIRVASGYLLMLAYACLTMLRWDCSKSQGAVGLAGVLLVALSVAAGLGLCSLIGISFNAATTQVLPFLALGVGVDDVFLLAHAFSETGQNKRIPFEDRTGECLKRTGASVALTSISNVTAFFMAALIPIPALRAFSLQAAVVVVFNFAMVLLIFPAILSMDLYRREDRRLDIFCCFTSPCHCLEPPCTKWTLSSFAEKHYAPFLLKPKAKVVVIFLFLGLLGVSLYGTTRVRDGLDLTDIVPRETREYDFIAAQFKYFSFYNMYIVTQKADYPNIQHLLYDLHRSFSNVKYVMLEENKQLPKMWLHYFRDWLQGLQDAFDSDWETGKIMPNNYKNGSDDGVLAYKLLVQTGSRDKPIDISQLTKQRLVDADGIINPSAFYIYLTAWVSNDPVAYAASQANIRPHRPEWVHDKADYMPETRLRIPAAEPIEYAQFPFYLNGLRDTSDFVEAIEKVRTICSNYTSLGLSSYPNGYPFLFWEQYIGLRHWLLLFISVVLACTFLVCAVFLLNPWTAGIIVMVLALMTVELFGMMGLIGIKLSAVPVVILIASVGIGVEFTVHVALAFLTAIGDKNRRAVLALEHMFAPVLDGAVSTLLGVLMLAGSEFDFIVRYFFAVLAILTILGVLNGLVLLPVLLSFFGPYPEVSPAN
Assay: cell-based or functional assay

- IC50 of the dose-dependent inhibition of HH signaling, Dual-Luciferase Reporter Assay in SHH-Light II cells; pair blocked: SHH with PTCH1: ~77.8 nM
B1: Fab^6H3 (Fab, V domains shown)
VH: EVQLVESGGGLVKPGGSRKLSCVASGFTLSDYGMHWVRQAPEKGLEWVAYIGSDSYTIYHADTMKGRFTISRDNAKNTLFLQMTSLRSEDTAMYYCGRNYGMDYWGQGTS
VL: VLTQSPAIMSASLGERVTLTCTASSSVTSSYLHWYQQKPGSSPKLWIYSTSNLPFGVSPRFSGSGSGTSFSLTISSMEAEDAATYYCHQFHRSPYTFGGGTK
